Assays:
[1] = biological target: NADH oxidase (NOX) from Lactobacillus brevis DSM 20054, wild type, SEQ ID NO:2 (Levilactobacillus brevis, UniProt Q03Q85); conditions: higher NADH concentrations (up to 0.5 mM); photometric
[2] = temperature optimum of the NADH oxidase; assay type: biochemical; conditions: FIG. 3
[3] = determination of the KM value for NADH; assay type: biochemical
[4] = NAD+ regeneration coupled with R-specific alcohol dehydrogenase recADHG37D, oxidation of (R,S)-phenylethanol, GC analysis; assay type: biochemical; conditions: 50 mM (R,S)-phenylethanol, 2 mM NADH, pH 7.0, 1 U recADHG37D and 2 U NADH oxidase, FIG. 4
Experimental: This may be necessary for example if NAD-dependent dehydrogenases are used for the oxidation, as has been shown in a general way hereinbefore (reaction scheme 1).
(R,S)-phenylethanol was used as alcohol, and the reaction was carried out as a batch reaction.
As a control the same experiment was carried out, but without the addition of NADH oxidase.

[5] = substrate: NC(=O)C1=CN([C@@H]2O[C@H](COP(=O)(O)OP(=O)(O)OC[C@H]3O[C@@H](n4cnc5c(N)ncnc54)[C@H](O)[C@@H]3O)[C@@H](O)[C@H]2O)C=CC1; assay: purified protein, by the assay type; conditions: other: NADH varied 0.0013 to 0.52 mM, photometric, 340 nm, 30° C., 100 mM potassium phosphate pH 7.5, 1 mM DTT (standard test), enzyme purified by 4 chromatographic steps
[6] = pH stability of the NADH oxidase (8 hours incubation in buffers, residual activity); assay type: physicochemical
Experimental: The pH optimum was measured in the range pH 4.0 to 10.0. Different buffers were used depending on the pH value. As a check on the influence of the buffer, when changing the buffer this pH value was measured twice in the different buffers (pH 7.0 and pH 8.5). 0.1 M citric acid/Na2PO4 was used for the range pH 4.0-7.0, 0.1 M TEA was used for the range 7.0-8.5, and 0.1 M glycine/NaOH was used for the range pH 8.5-10.0.
At pH 8.5 the enzyme is still up to 100% stable after 8 hours in TEA/NaOH buffer as well as in glycine/NaOH buffer. The figure illustrates that the enzyme stable in the slightly alkaline range (pH 8-9) is also stable in a wider range. This range is useful for application purposes if the NADH oxidase for the oxidation is to be coupled with an NAD-dependent dehydrogenase, since the pH optimum of many dehydrogenases for the oxidation lies in a slightly alkaline range.

[7] = temperature stability of the NADH oxidase (storage at 30° C. and 42° C., residual activity); assay type: physicochemical
Experimental: In order to determine the temperature stability enzyme samples were stored at 30° C. and 42° C., samples were taken at various times, and the residual activity was measured. […] At 42° C. the enzyme deactivates initially (up to ca. 120 minutes) relatively quickly, following which it appears to be stable at ca. 50% residual activity over a relatively long time (at least 16 hours).

NC(=O)C1=CN([C@@H]2O[C@H](COP(=O)(O)OP(=O)(O)OC[C@H]3O[C@@H](n4cnc5c(N)ncnc54)[C@H](O)[C@@H]3O)[C@@H](O)[C@H]2O)C=CC1 [NADH]
excess inhibition by NADH [1]: weak excess inhibition

B1: NADH oxidase (NOX) from Lactobacillus brevis DSM 20054, wild type, SEQ ID NO:2 (Levilactobacillus brevis ATCC 367) (protein)
chain: MKVTVVGCTHAGTFAIKQILAEHPDAEVTVYERNDVISFLSCGIALYLGGKVADPQGLFYSSPEELQKLGANVQMNHNVLAIDPDQKTVTVEDLTSHAQTTESYDKLVMTSGSWPIVPKIPGIDSDRVKLCKNWAHAQALIEDAKEAKRITVIGAGYIGAELAEAYSTTGHDVTLIDAMDRVMPKYFDADFTDVIEQDYRDHGVQLALSETVESFTDSATGLTIKTDKNSYETDLAILCIGFRPNTDLLKGKVDMAPNGAIITDDYMRSSNPDIFAAGDSAAVHYNPTHQNAYIPLATNAVRQGILVGKNLVKPTVKYMGTQSSSGLALYDRTIVSTGLTLAAAKQQGVNAEQVIVEDNYRPEFMPSTEPVLMSLVFDPDTHRILGGALMSKYDVSQSANTLSVCIQNENTIDDLAMVDMLFQPNFDRPFNYLNILAQAAQAKVAQSVNA
temperature of maximum activity [2]: 40 °C | excess (substrate) inhibition at higher NADH concentrations ([3]; NADH up to 0.5 mM): only a weak excess inhibition | NADH concentration at which maximum activity is reached ([3]; NADH varied from 0.0013 to 0.52 mM): 0.1 mM | oxidation of the R-alcohol of (R,S)-phenylethanol in the coupled reaction [4]: almost completely oxidised | Km [5]: 24 µM | first stability optimum (pH) ([6]; 8 hours incubation, FIG. 2): 5.0 pH | second stability optimum (pH) ([6]; 8 hours incubation, FIG. 2): 8.5 pH | stability in the range pH 5.5-7.5 ([6]; 8 hours incubation, pH 5.5-7.5): moderately stable | stability (residual activity) after 8 hours at pH 8.5 ([6]; pH 8.5, TEA/NaOH buffer as well as glycine/NaOH buffer, 8 hours): up to 100% | time for which the enzyme is in practice stable ([7]; storage at 30° C.): ca. 400 minutes | half-value time of deactivation ([7]; storage at 30° C., after ca. 400 minutes): ca. 18 hours | residual activity ([7]; storage at 42° C., after initial deactivation (up to ca. 120 minutes), stable for at least 16 hours): ca. 50%

Reference: patent US7435574B2 (Degussa AG, priority 2001, dated 2008)
